Test [1] deals with T1, rat CNTF receptor on rat superior cervical ganglia (SCG) neurons (rat, UniProt Q08406 23-342).
T1 construct: whole, on cells; Native neurons; also called rat receptor
T1 sequence (looked up): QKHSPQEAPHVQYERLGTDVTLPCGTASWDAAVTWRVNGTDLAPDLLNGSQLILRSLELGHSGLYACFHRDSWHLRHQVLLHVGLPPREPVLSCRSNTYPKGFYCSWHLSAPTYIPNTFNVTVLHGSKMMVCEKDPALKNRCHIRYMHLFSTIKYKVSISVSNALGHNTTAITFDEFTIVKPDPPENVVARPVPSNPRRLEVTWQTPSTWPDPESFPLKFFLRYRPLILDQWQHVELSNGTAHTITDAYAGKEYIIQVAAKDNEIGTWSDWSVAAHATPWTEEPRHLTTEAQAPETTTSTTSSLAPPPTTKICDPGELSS
Put plainly: competition with 125I-rat CNTF on rat SCG neurons. As to the method: Reactions were incubated for 45 min at 0° C. followed by 15 min at room temperature and terminated by the addition of […] of 0.2 M glycine solution. After 15 min, 0.2 ml PBS containing 0.08% gelatin was also added and the mixture was passed through a Superdex-75 column (Pharmacia) to separate the labelled monomeric CNTF from dimeric and other multimeric derivatives. Percentage of incorporation was typically 20%, as determined by thin layer chromatography and the specific activity was typically around 1,000 Ci/mmole. […] Growth medium consisted of Ham's nutrient mixture F12 with 10% heat-inactivated fetal bovine serum (Hyclone), nerve growth factor (NGF) (100 ng/ml), penicillin (50 U/ml) and streptomycin (50 µg/ml). Cultures were maintained at 37° C. in a humidified 95% air/5% CO_2 atmosphere. Ganglion non-neuronal cells were eliminated by treatment with araC (10 µM) on days 1 and 3 of culture. Cultures were fed 3 times/week and were routinely used for binding assays within 2 weeks.
Binding was performed directly on cell monolayers. Cells in culture wells were washed once with assay buffer consisting of phosphate buffered saline (PBS; pH 7.4), 0.1 mM bacitracin, 1 mM PMSF, 1 µg/ml leupeptin, and 1 mg/ml BSA. […] Non-specific binding was determined in the presence of 1,000-fold excess of unlabelled CNTF. […] Data were analyzed using the […] program (ISI, Philadelphia, Pa.).

Test [2] concerns the target T2, human CNTF receptor α-component on MG87/CNTFR fibroblasts (human, UniProt P26992 23-342).
T2 construct: whole, on cells; also called CNTFRα; MG87/huCNTFR
T2 sequence (looked up): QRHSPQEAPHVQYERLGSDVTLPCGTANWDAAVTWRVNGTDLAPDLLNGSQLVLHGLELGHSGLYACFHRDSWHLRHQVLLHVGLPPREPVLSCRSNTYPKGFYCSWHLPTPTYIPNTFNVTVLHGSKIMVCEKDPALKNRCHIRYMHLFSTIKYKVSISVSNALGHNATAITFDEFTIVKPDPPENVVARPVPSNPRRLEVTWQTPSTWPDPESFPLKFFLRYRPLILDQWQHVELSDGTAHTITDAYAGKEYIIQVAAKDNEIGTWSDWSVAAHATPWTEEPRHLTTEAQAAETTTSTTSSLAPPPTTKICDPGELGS
Put plainly: competition with 125I-rat CNTF on MG87/CNTFR cells.

B1: recombinant rat CNTF (ciliary neurotrophic factor) (ligand)
chain: MAFAEQTPLTLHRRDLCSRSIWLARKIRSDLTALMESYVKHQGLNKNINLDSVDGVPVASTDRWSEMTEAELRQENLQAYRTFQGMLTKLLEDQRVHFTPTEGDFHQAIHTLMLQVSAFAYQLEELMVLLEQKIPENEADGMPATVGDGGLFEKKLWGLKVLQELSQWTVRSIHDLRVISSHQMGISALESHYGAKDKQM
notes: also called unlabelled rat CNTF
For the molecule B1, the half-inhibitory concentration (IC50) (usually the concentration that inhibits the measured activity by half) in test [1] came out at 0.28 nM; in test [2] it was 2.8 nM.

(Values after patent US6472178.)
